Test results reported in paper PMC6238537.

What was measured:
Experiment in all cases: solid-phase binding assay
[1] = molecular target: recombinant integrin αvβ5, P06756;P18084; settings: read off a plot
[2] = molecular target: recombinant integrin αvβ3, P06756;P05106; settings: read off a plot
[3] = molecular target: recombinant integrin α9β1, Q13797;P05556; settings: parent: est. 0.11; read off a plot
Chain of recombinant integrin α9β1, Q13797;P05556 (chain, as listed by the source, chain 1 of 2): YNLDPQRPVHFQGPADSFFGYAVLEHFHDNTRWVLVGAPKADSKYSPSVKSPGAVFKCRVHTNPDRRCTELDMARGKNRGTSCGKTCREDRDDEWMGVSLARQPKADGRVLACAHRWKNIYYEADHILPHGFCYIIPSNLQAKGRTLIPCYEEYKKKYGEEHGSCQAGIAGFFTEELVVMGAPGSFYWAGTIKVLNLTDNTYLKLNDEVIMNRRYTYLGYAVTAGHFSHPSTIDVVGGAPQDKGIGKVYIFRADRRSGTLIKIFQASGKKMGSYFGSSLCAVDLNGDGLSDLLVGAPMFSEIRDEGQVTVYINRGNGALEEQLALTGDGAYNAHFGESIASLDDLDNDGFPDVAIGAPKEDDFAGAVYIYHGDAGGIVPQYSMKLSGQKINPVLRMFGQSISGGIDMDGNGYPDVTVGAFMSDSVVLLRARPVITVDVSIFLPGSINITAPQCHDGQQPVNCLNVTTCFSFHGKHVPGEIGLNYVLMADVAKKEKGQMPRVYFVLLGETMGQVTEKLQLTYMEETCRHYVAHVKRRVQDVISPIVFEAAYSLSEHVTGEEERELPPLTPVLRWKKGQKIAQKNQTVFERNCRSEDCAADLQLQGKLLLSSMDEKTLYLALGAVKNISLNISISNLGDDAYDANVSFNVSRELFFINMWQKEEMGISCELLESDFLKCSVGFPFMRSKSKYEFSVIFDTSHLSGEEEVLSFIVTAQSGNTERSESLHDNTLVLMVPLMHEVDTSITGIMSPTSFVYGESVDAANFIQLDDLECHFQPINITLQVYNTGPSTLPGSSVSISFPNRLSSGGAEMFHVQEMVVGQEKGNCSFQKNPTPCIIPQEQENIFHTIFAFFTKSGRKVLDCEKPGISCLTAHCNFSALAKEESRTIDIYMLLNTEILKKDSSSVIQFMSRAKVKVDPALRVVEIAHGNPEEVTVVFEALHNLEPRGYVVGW
Chain of recombinant integrin α9β1, Q13797;P05556 (chain, as listed by the source, chain 2 of 2): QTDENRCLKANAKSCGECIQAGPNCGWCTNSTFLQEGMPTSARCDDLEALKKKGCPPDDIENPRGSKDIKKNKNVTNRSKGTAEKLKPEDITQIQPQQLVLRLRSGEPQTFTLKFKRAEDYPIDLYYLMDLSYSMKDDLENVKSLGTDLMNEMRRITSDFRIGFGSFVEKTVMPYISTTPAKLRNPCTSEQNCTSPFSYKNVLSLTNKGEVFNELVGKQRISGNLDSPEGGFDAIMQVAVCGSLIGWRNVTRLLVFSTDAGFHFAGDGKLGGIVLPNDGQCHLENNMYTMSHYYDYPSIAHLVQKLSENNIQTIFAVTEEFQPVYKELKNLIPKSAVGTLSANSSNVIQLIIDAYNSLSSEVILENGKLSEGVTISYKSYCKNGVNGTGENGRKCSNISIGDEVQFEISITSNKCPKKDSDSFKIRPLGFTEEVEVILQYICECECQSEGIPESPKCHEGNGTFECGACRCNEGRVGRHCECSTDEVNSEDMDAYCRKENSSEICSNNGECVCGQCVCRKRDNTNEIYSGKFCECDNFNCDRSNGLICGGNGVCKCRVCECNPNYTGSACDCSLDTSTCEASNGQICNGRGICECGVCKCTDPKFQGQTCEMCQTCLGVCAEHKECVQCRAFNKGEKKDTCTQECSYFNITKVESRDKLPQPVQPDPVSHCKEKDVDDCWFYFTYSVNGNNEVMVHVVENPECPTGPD

| Substance | response (absorbance at 490 nm) ([1]; parent: est. 0.26) | response (absorbance at 490 nm) ([2]; parent: est. 0.15) | response (absorbance at 490 nm) ([1]; parent: est. 1.4) | response (absorbance at 490 nm) ([2]; parent: est. 0.53) | response (absorbance at 490 nm) [3] |
| --- | --- | --- | --- | --- | --- |
| recombinant human laminin-111 (from UniProt P25391;P07942;P11047) γ1:EQ (γ1C-Glu to Gln) | 0.27 | 0.17 |  |  |  |
| recombinant human laminin-511, O15230;P07942;P11047 γ1:EQ (γ1C-Glu to Gln) |  |  | 1.6 | 0.62 | 0.13 |
